A word on the EC50: it is the concentration needed to bring the measured effect to its halfway point.

For one experiment, the target named is T1, human CCR5 (human, UniProt P51681 1-352).
T1 construct: whole, on cells; also called huCCR5
Nature of the experiment: flow cytometry on CHO-K1 cells expressing human CCR5. The method, then:
(§1) CHO cells overexpressing human or cynomolgus CX3CR1 were generated using techniques known in the art. Cells were harvested and resuspended in assay buffer (PBS, 2% FBS, 0.05% NaN3) and seeded separately in 384-well Bio-One V-bottom plates (Greiner, Cat. No. 781280), with a total of 2E04 cells seeded per well. After washing, serial dilutions of multivalent ISVD construct (starting from 250 nM, 3-fold dilution, 11 points, diluted in assay buffer), were added and incubated for 4 hours at 4° C. Binding was performed in the presence of 30 uM HSA (Sigma-Aldrich, Cat. No. A8763). Plates were then washed 3 times and cells were incubated with an anti-VHH mouse antibody (3300-fold diluted in assay buffer) for 30 minutes at 4′° C. […] Plates were finally washed 3 times and cells were resuspended in PI (Miltenyi Biotec, Cat. No. 130-093-233, 1000-fold diluted in assay buffer). Cell suspensions were analyzed with iQue Screener PLUS (Intellicyt). EC50s were estimated by dose response modelling. Curves were fit using 4 parameter logistic regression in GraphPad (GraphPad Software Inc.). A purified anti-human CX3CR1 antibody [K0124E1] (BioLegend, Cat. No. 355701/355702) was used as positive control to detect CX3CR1 expression on the cell surface.
Specificity of the 5 selected multivalent ISVD constructs for the huCX3CR1 receptor was evaluated by performing a FACS binding experiment on CHO-K1 cells expressing human CCR2 or human CCR5. CHO cells overexpressing huCCR2 or huCCR5 were generated using techniques known in the art. Binding of the multivalent ISVD constructs to huCR2 or huCCR5 expressed on the cell surfaces was examined by flow cytometry as described in example 5.1.
For orientation: In flow cytometry, cells or beads pass a laser one at a time.

The target of experiment [1] is T2, human CX3CR1 (human, UniProt P49238 1-355).
T2 construct: Overexpressed on CHO K1, Ba/F3 or HEK293T cells; also called huCX3CR1; hCX3CR1
T2 sequence: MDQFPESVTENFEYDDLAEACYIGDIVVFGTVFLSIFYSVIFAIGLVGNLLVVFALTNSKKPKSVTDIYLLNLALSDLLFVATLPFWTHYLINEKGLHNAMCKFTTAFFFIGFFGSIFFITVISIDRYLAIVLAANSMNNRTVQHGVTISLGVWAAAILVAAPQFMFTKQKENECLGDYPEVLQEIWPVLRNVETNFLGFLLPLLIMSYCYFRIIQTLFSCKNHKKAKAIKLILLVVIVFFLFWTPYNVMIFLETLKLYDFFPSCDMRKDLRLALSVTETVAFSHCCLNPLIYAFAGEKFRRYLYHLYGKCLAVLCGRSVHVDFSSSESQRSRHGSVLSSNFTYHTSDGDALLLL
Nature of the experiment: flow cytometry on CHO K1 huCX3CR1 cells, 30 uM HSA. As to the method: as §1

Experiment [2] concerns the target T2, human CX3CR1. Nature of the experiment: flow cytometry on transiently transfected HEK293T cells, human CX3CR1 WT. As to the method:
as §1, with “After” for “CHO cells overexpressing human or cynomolgus CX3CR1 were generated using techniques known in the art. Cells were harvested and resuspended in assay buffer (PBS, 2% FBS, 0.05% NaN3) and seeded separately in 384-well Bio-One V-bottom plates (Greiner, Cat. No. 781280), with a total of 2E04 cells seeded per well. After”
(§2) Two important SNPs are described in huCX3CR1, i.e. V2491 (Rs3732379) and T280M (Rs3732378), which might influence receptor activity and binding by the ISVD. […] Different combinations of these SNPs were introduced in human CX3CR1, and binding by 5 selected multivalent ISVD constructs was assessed with flow cytometry after transient transfection of the huCX3CR1 variants in HEK293T cells.
(§3) In short, the CX3CR1 constructs were cloned into pcDNA3.1 (ThermoFisher Scientific, Cat. No. V79020) and plasmid DNA was prepared from Escherichia coli TOP10 cells. HEK293T cells were seeded at a concentration of 1.5E06 cells per T75 flask and incubated overnight at 37° C. in DMEM medium (Gibco, Cat. No. 31966) supplemented with 10% FBS (Sigma. Cat. No. F7524). The medium was then replaced by Opti-MEM medium (Gibco, Cat. No. 31985). A mixture of 9 μg plasmid DNA, 27 μL Fugene 6 (Promega, Cat. No. E2691) in a final volume of 1 mL Opti-MEM was incubated for 15 minutes at room temperature and then added to the cells. After 3 hours incubation at 37° C., 10 mL of DMEM supplemented with 20% FBS was added, and incubation continued.

For another experiment, the target named is T3, human CX3CR1 T280M (human, UniProt P49238 1-355).
T3 construct: Transiently transfected in HEK293T cells (pcDNA3.1); also called huCX3CR1 variant T280M (Rs3732378)
T3 sequence: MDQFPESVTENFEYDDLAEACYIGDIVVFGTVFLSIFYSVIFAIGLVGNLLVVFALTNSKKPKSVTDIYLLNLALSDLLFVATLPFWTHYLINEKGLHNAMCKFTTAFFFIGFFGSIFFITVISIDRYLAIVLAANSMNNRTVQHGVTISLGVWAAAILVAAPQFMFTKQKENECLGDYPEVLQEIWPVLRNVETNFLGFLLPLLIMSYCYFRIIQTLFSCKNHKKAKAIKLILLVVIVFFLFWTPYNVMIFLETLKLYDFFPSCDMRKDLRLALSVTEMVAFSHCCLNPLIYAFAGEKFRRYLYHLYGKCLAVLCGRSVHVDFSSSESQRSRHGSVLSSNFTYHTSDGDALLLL
The experiment can be described thus: flow cytometry on transiently transfected HEK293T cells, human CX3CR1 T280M. As to the method:
as §1, with “After” for “CHO cells overexpressing human or cynomolgus CX3CR1 were generated using techniques known in the art. Cells were harvested and resuspended in assay buffer (PBS, 2% FBS, 0.05% NaN3) and seeded separately in 384-well Bio-One V-bottom plates (Greiner, Cat. No. 781280), with a total of 2E04 cells seeded per well. After”
as §2, §3

T1 sequence (P51681 whole entry): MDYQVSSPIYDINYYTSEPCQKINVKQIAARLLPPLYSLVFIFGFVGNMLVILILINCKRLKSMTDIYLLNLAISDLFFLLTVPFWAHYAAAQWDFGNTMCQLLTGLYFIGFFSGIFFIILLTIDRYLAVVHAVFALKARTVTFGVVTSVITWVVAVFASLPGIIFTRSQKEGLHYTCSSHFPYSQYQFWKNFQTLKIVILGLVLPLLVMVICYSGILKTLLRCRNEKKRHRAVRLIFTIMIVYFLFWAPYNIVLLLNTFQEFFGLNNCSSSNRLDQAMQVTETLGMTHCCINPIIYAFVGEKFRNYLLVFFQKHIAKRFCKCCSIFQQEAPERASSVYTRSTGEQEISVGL

B1: A041600025 (VHH)
chain: DVQLVESGGGSVQPGGSLRLSCAASGSIFSSTAMAWYRQAPGKQRDLVAVISTVGITKYADSVKGRFTISRDNAKNTVYLQMNSLRPEDTALYYCTSDARRGWDTRYWGQGTLVTVSSGGGGSGGGSEVQLVESGGGVVQPGGSLRLSCAASGFTFRSFGMSWVRQAPGKGPEWVSSISGSGSDTLYADSVKGRFTISRDNSKNTLYLQMNSLRPEDTALYYCTIGGSLSRSSQGTLVTVSSGGGGSGGGSEVQLVESGGGSVQPGGSLRLSCAASGSIFSSTAMAWYRQAPGKQRDLVAVISTVGITKYADSVKGRFTISRDNAKNTVYLQMNSLRPEDTALYYCTSDARRGWDTRYWGQGTLVTVSSA
notes: Trivalent ISVD construct (two anti-CX3CR1 ISVDs, one anti-albumin ISVD), C-terminal alanine included in the entry; also called 54A12_SO (E1D)-9GS-ALB23002-9GS-54A12_SO-A
With B1, the binding result in the experiment with human CCR5 was “no binding”. Also, the values for the concentration giving a half-maximal response (EC50) in the experiment with human CX3CR1 [1], in the experiment with human CX3CR1 [2] and with human CX3CR1 T280M were 0.46 nM, 0.065 nM and 0.16 nM, respectively. The same molecule showed a top with human CX3CR1 [1] of 28700.

B2: A041600034 (VHH)
chain: DVQLVESGGGSVQPGGSLRLSCAASGSIFSSTAMAWYRQAPGKQRDLVAVISTVGITKYADSVKGRFTISRDNAKNTVYLQMNSLRPEDTALYYCTSDARRGWDTRYWGQGTLVTVSSGGGGSGGGSEVQLVESGGGVVQPGGSLRLSCAASGFTFRSFGMSWVRQAPGKGPEWVSSISGSGSDTLYADSVKGRFTISRDNSKNTLYLQMNSLRPEDTALYYCTIGGSLSRSSQGTLVTVSSGGGGSGGGSEVQLVESGGGSVQPGGSLRLSCAASGSIFSSTAMAWYRQAPGKRRDLVAAINTVGVTKYADSVKGRFTISRDNAKNTVYLQMNSLRPEDTALYYCTSDPRRGWDTRYWGQGTLVTVSSA
notes: Trivalent ISVD construct; also called 54A12_SO (E1D)-9GS-ALB23002-9GS-66B02_SO-A
Take B2: in the experiment with human CCR5, the binding result was “no binding”. In addition, the figures for the EC50 with human CX3CR1 [1], in the experiment with human CX3CR1 [2] and with human CX3CR1 T280M were 0.63 nM, 0.1 nM and 0.074 nM, respectively. In the experiment with human CX3CR1 [1], the top came out at 28200.

B3: A041600085 (VHH)
chain: DVQLVESGGGLVQPGGSLRLSCAASGSIFSSTAMAWYRQAPGKRRDLVAAISTVGVTKYADSVKGRFTISRDNSKNTVYLQMNSLRPEDTAVYYCTSDPRRGWDTRYWGQGTLVTVSSGGGGSGGGSEVQLVESGGGVVQPGGSLRLSCAASGFTFRSFGMSWVRQAPGKGPEWVSSISGSGSDTLYADSVKGRFTISRDNSKNTLYLQMNSLRPEDTALYYCTIGGSLSRSSQGTLVTVSSGGGGSGGGSEVQLVESGGGLVQPGGSLRLSCAASGSIFSSTAMAWYRQAPGKRRDLVAAISTVGVTKYADSVKGRFTISRDNSKNTVYLQMNSLRPEDTAVYYCTSDPRRGWDTRYWGQGTLVTVSSA
notes: also called 307-9GS-ALB23002-9GS-307 (D1E)-A
For the molecule B3, the binding result with human CCR5 was “no binding”. Further, the results for the EC50 with human CX3CR1 [1], with human CX3CR1 [2] and in the experiment with human CX3CR1 T280M were 0.17 nM, 0.12 nM and 0.17 nM, respectively. The molecule further displayed a top with human CX3CR1 [1] of 14600.

B4: A041600035 (VHH)
chain: DVQLVESGGGSVQPGGSLRLSCAASGSIFSSTAMAWYRQAPGKQRDLVAVISTVGITKYADSVKGRFTISRDNAKNTVYLQMNSLRPEDTALYYCTSDARRGWDTRYWGQGTLVTVSSGGGGSGGGSEVQLVESGGGSVQPGGSLRLSCAASGSIFSSTAMAWYRQAPGKQRDLVAVISTVGITKYADSVKGRFTISRDNAKNTVYLQMNSLRPEDTALYYCTSDARRGWDTRYWGQGTLVTVSSGGGGSGGGSEVQLVESGGGVVQPGGSLRLSCAASGFTFRSFGMSWVRQAPGKGPEWVSSISGSGSDTLYADSVKGRFTISRDNSKNTLYLQMNSLRPEDTALYYCTIGGSLSRSSQGTLVTVSSA
notes: Trivalent ISVD construct (two anti-CX3CR1 ISVDs, one anti-albumin ISVD), C-terminal alanine included in the entry; also called 54A12_SO (E1D)-9GS-54A12_SO-9GS-ALB23002-A
As to B4, the binding result with human CCR5 was “no binding”. The figures for the EC50 in the experiment with human CX3CR1 [1], in the experiment with human CX3CR1 [2] and with human CX3CR1 T280M were 0.36 nM, 0.13 nM and 0.2 nM, respectively. The top in the experiment with human CX3CR1 [1] turned out to be 50900.

B5: A041600041 (VHH)
chain: DVQLVESGGGSVQPGGSLRLSCAASGSIFSSTAMAWYRQAPGKQRDLVAVISTVGITKYADSVKGRFTISRDNAKNTVYLQMNSLRPEDTALYYCTSDARRGWDTRYWGQGTLVTVSSGGGGSGGGSEVQLVESGGGSVQPGGSLRLSCAASGSIFSSTAMAWYRQAPGKRRDLVAAINTVGVTKYADSVKGRFTISRDNAKNTVYLQMNSLRPEDTALYYCTSDPRRGWDTRYWGQGTLVTVSSGGGGSGGGSEVQLVESGGGVVQPGGSLRLSCAASGFTFRSFGMSWVRQAPGKGPEWVSSISGSGSDTLYADSVKGRFTISRDNSKNTLYLQMNSLRPEDTALYYCTIGGSLSRSSQGTLVTVSSA
notes: Trivalent ISVD construct (two anti-CX3CR1 ISVDs, one anti-albumin ISVD), C-terminal alanine included in the entry; also called 54A12_SO (E1D)-9GS-66B02_SO-9GS-ALB23002-A
With B5, the binding result with human CCR5 is listed as “no binding”. Further, the EC50 is 0.22 nM with human CX3CR1 [1], 0.16 nM with human CX3CR1 [2] and 0.22 nM with human CX3CR1 T280M. This molecule returned a top with human CX3CR1 [1] of 41800.

(Values after US20240117038A1 (Ablynx, published 2024).)
